Patent publication US20220251595A1, “ENGINEERED ATRLP23 PATTERN RECOGNITION RECEPTORS AND METHODS OF USE” (priority 2019, published 2022)

B1: AtRLP23-eJMAtRLP1-3×FLAG: AtRLP23 with the AtRLP1 eJM domain, 3×FLAG; SEQ ID NO: 49, 50 (protein)
chain: MSKALLHLHFLSLFLLCCVCHSSIFTLNFHFTGIVACRPHQIQAFTKFTNEFDTRGCNNSDTFNGVWCDNSTGAVAVLQLRKCLSGTLKSNSSLFGFHQLRYVDLQNNNLTSSSLPSGFGNLKRLEGLFLSSNGFLGQVPSSFSNLTMLAQLDLSYNKLTGSFPLVRGLRKLIVLDLSYNHFSGTLNPNSSLFELHQLRYLNLAFNNFSSSLPSKFGNLHRLENLILSSNGFSGQVPSTISNLTRLTKLYLDQNKLTSSFPLVQNLTNLYELDLSYNKFFGVIPSSLLTLPFLAHLALRENNLAGSVEVSNSSTSSRLEIMYLGSNHFEGQILEPISKLINLKHLDLSFLNTSYPIDLKLFSSLKSLRSLDLSGNSISSASLSSDSYIPLTLEMLTLRHCDINEFPNILKTLKELVYIDISNNRMKGKIPEWLWSLPLLQSVTLGNNYFTGFQGSAEILVNSSVLLLYLDSNNFEGALPDLPLSIKGFGVASNSFTSEIPLSICNRSSLAAIDLSYNNFTGPIPPCLRNLELVYLRNNNLEGSIPDALCDGASLRTLDVSHNRLTGKLPRSFVNCSSLKFLSVINNRIEDTFPFWLKALPNLQVLTLRSNRFYGPISPPHQGPLGFPELRIFEISDNKFTGSLPPNYFVNWKASSRTMNQDGGLYMVYEEKLFDEGGYGYTDALDLQYKGLHMEQAKALTSYAAIDFSGNRLEGQIPESIGLLKALIAVNISNNAFTGHIPLSMANLENLESLDMSRNQLSGTIPNGLGSISFLAYINVSHNQLTGEIPQGTQITGQSKSSFEGNAGLCGLPLKESCFGTGAPPMYHQKQEDTHAKEEENEEEGNVIDAVAIGYGSGLLLGLAIAQVIASYKPEWLVKIIGLNKRRKRSDYKDHDGDYKDHDLDAAAADYKDDDDK
modifications: Fusion protein
B2: AtRLP23-3×FLAG: AtRLP23 (amino acids 1-890) linked to the 3×FLAG peptide; SEQ ID NO: 13 (nucleotide), 14 (protein) (protein)
chain: MSKALLHLHFLSLFLLCCVCHSSIFTLNFHFTGIVACRPHQIQAFTKFTNEFDTRGCNNSDTFNGVWCDNSTGAVAVLQLRKCLSGTLKSNSSLFGFHQLRYVDLQNNNLTSSSLPSGFGNLKRLEGLFLSSNGFLGQVPSSFSNLTMLAQLDLSYNKLTGSFPLVRGLRKLIVLDLSYNHFSGTLNPNSSLFELHQLRYLNLAFNNFSSSLPSKFGNLHRLENLILSSNGFSGQVPSTISNLTRLTKLYLDQNKLTSSFPLVQNLTNLYELDLSYNKFFGVIPSSLLTLPFLAHLALRENNLAGSVEVSNSSTSSRLEIMYLGSNHFEGQILEPISKLINLKHLDLSFLNTSYPIDLKLFSSLKSLRSLDLSGNSISSASLSSDSYIPLTLEMLTLRHCDINEFPNILKTLKELVYIDISNNRMKGKIPEWLWSLPLLQSVTLGNNYFTGFQGSAEILVNSSVLLLYLDSNNFEGALPDLPLSIKGFGVASNSFTSEIPLSICNRSSLAAIDLSYNNFTGPIPPCLRNLELVYLRNNNLEGSIPDALCDGASLRTLDVSHNRLTGKLPRSFVNCSSLKFLSVINNRIEDTFPFWLKALPNLQVLTLRSNRFYGPISPPHQGPLGFPELRIFEISDNKFTGSLPPNYFVNWKASSRTMNQDGGLYMVYEEKLFDEGGYGYTDALDLQYKGLHMEQAKALTSYAAIDFSGNRLEGQIPESIGLLKALIAVNISNNAFTGHIPLSMANLENLESLDMSRNQLSGTIPNGLGSISFLAYINVSHNQLTGEIPQGTQITGQSKSSFEGNAGLCGLPLKESCFGTGAPPMYHQKQEDKEEEEEEEEEEEEVLNGRAVAIGYGSGLLLGLAIAQVIASYKPEWLVKIIGLNKRRKRSDYKDHDGDYKDHDLDAAAADYKDDDDK
modifications: Fusion protein
B3: AtRLP23-eJMVe1-3×FLAG: AtRLP23 with the SlVe1 eJM domain, 3×FLAG; SEQ ID NO: 53, 54 (protein)
chain: MSKALLHLHFLSLFLLCCVCHSSIFTLNFHFTGIVACRPHQIQAFTKFTNEFDTRGCNNSDTFNGVWCDNSTGAVAVLQLRKCLSGTLKSNSSLFGFHQLRYVDLQNNNLTSSSLPSGFGNLKRLEGLFLSSNGFLGQVPSSFSNLTMLAQLDLSYNKLTGSFPLVRGLRKLIVLDLSYNHFSGTLNPNSSLFELHQLRYLNLAFNNFSSSLPSKFGNLHRLENLILSSNGFSGQVPSTISNLTRLTKLYLDQNKLTSSFPLVQNLTNLYELDLSYNKFFGVIPSSLLTLPFLAHLALRENNLAGSVEVSNSSTSSRLEIMYLGSNHFEGQILEPISKLINLKHLDLSFLNTSYPIDLKLFSSLKSLRSLDLSGNSISSASLSSDSYIPLTLEMLTLRHCDINEFPNILKTLKELVYIDISNNRMKGKIPEWLWSLPLLQSVTLGNNYFTGFQGSAEILVNSSVLLLYLDSNNFEGALPDLPLSIKGFGVASNSFTSEIPLSICNRSSLAAIDLSYNNFTGPIPPCLRNLELVYLRNNNLEGSIPDALCDGASLRTLDVSHNRLTGKLPRSFVNCSSLKFLSVINNRIEDTFPFWLKALPNLQVLTLRSNRFYGPISPPHQGPLGFPELRIFEISDNKFTGSLPPNYFVNWKASSRTMNQDGGLYMVYEEKLFDEGGYGYTDALDLQYKGLHMEQAKALTSYAAIDFSGNRLEGQIPESIGLLKALIAVNISNNAFTGHIPLSMANLENLESLDMSRNQLSGTIPNGLGSISFLAYINVSHNQLTGEIPQGTQITGQSKSSFEGNAGLCGLPLKESCFGTGAPPMYHQKQEDESLPPPTPLPDSDDEWEAVAIGYGSGLLLGLAIAQVIASYKPEWLVKIIGLNKRRKRSDYKDHDGDYKDHDLDAAAADYKDDDDK
modifications: Fusion protein
B4: AtRLP23-eJM(EEEE/ADQ−)-3×FLAG (protein)
chain: SIFTLNFHFTGIVACRPHQIQAFTKFTNEFDTRGCNNSDTFNGVWCDNSTGAVAVLQLRKCLSGTLKSNSSLFGFHQLRYVDLQNNNLTSSSLPSGFGNLKRLEGLFLSSNGFLGQVPSSFSNLTMLAQLDLSYNKLTGSFPLVRGLRKLIVLDLSYNHFSGTLNPNSSLFELHQLRYLNLAFNNFSSSLPSKFGNLHRLENLILSSNGFSGQVPSTISNLTRLTKLYLDQNKLTSSFPLVQNLTNLYELDLSYNKFFGVIPSSLLTLPFLAHLALRENNLAGSVEVSNSSTSSRLEIMYLGSNHFEGQILEPISKLINLKHLDLSFLNTSYPIDLKLFSSLKSLRSLDLSGNSISSASLSSDSYIPLTLEMLTLRHCDINEFPNILKTLKELVYIDISNNRMKGKIPEWLWSLPLLQSVTLGNNYFTGFQGSAEILVNSSVLLLYLDSNNFEGALPDLPLSIKGFGVASNSFTSEIPLSICNRSSLAAIDLSYNNFTGPIPPCLRNLELVYLRNNNLEGSIPDALCDGASLRTLDVSHNRLTGKLPRSFVNCSSLKFLSVINNRIEDTFPFWLKALPNLQVLTLRSNRFYGPISPPHQGPLGFPELRIFEISDNKFTGSLPPNYFVNWKASSRTMNQDGGLYMVYEEKLFDEGGYGYTDALDLQYKGLHMEQAKALTSYAAIDFSGNRLEGQIPESIGLLKALIAVNISNNAFTGHIPLSMANLENLESLDMSRNQLSGTIPNGLGSISFLAYINVSHNQLTGEIPQGTQITGQSKSSFEGNAGLCGLPLKESCFGTGAPPMYHQKQEDKEEEEAEEDEQEVLNGRAVAIGYGSGLLLGLAIAQVIASYKPEWLVKIIGLNKRRKRSDYKDHDGDYKDHDLDAAAADYKDDDDK
B5: AtRLP23-AtBAK1-3×FLAG: AtRLP23 apoplastic and eJM domains, AtBAK1 TM and cytoplasmic domains, 3×FLAG; SEQ ID NO: 25, 26 (protein)
chain: MSKALLHLHFLSLFLLCCVCHSSIFTLNFHFTGIVACRPHQIQAFTKFTNEFDTRGCNNSDTFNGVWCDNSTGAVAVLQLRKCLSGTLKSNSSLFGFHQLRYVDLQNNNLTSSSLPSGFGNLKRLEGLFLSSNGFLGQVPSSFSNLTMLAQLDLSYNKLTGSFPLVRGLRKLIVLDLSYNHFSGTLNPNSSLFELHQLRYLNLAFNNFSSSLPSKFGNLHRLENLILSSNGFSGQVPSTISNLTRLTKLYLDQNKLTSSFPLVQNLTNLYELDLSYNKFFGVIPSSLLTLPFLAHLALRENNLAGSVEVSNSSTSSRLEIMYLGSNHFEGQILEPISKLINLKHLDLSFLNTSYPIDLKLFSSLKSLRSLDLSGNSISSASLSSDSYIPLTLEMLTLRHCDINEFPNILKTLKELVYIDISNNRMKGKIPEWLWSLPLLQSVTLGNNYFTGFQGSAEILVNSSVLLLYLDSNNFEGALPDLPLSIKGFGVASNSFTSEIPLSICNRSSLAAIDLSYNNFTGPIPPCLRNLELVYLRNNNLEGSIPDALCDGASLRTLDVSHNRLTGKLPRSFVNCSSLKFLSVINNRIEDTFPFWLKALPNLQVLTLRSNRFYGPISPPHQGPLGFPELRIFEISDNKFTGSLPPNYFVNWKASSRTMNQDGGLYMVYEEKLFDEGGYGYTDALDLQYKGLHMEQAKALTSYAAIDFSGNRLEGQIPESIGLLKALIAVNISNNAFTGHIPLSMANLENLESLDMSRNQLSGTIPNGLGSISFLAYINVSHNQLTGEIPQGTQITGQSKSSFEGNAGLCGLPLKESCFGTGAPPMYHQKQEDKEEEEEEEEEEEEVLNGRITGAIAGGVAAGAALLFAVPAIALAWWRRKKPQDHFFDVPAEEDPEVHLGQLKRFSLRELQVASDNFSNKNILGRGGFGKVYKGRLADGTLVAVKRLKEERTQGGELQFQTEVEMISMAVHRNLLRLRGFCMTPTERLLVYPYMANGSVASCLRERPESQPPLDWPKRQRIALGSARGLAYLHDHCDPKIIHRDVKAANILLDEEFEAVVGDFGLAKLMDYKDTHVTTAVRGTIGHIAPEYLSTGKSSEKTDVFGYGVMLLELITGQRAFDLARLANDDDVMLLDWVKGLLKEKKLEALVDVDLQGNYKDEEVEQLIQVALLCTQSSPMERPKMSEVVRMLEGDGLAERWEEWQKEEMFRQDFNYPTHHPAVSGWIIGDSTSQIENEYPSGPRSDYKDHDGDYKDHDLDAAAADYKDDDDK
modifications: Fusion protein

Tested on: corn protoplasts
Assay: Calcium burst in transiently transfected corn protoplasts, R-GECO1.2 fluorescence reporter
Format: cell-based, Zea mays
Details: 1 μM PpNLP20; for Ca^2+ increase in response to PpNLP20 treatment (R-GECO1.2 fluorescence): transient expression in corn protoplasts
Description: Following ligand (also known as elicitor) binding, PRRs are activated and induce a transient increase of cytosolic Ca^2+ concentration as part of a PTI response. […] In a high-throughput method, the kinetics of PRR-dependent transient variation of cytosolic Ca^2+ concentration can be measured with a fluorimeter or luminometer and in microplate formats of 96 or 384 wells.
Fluorescence was monitored using a fluorimeter equipped with a 100 Hz xenon flash lamp with excitation at 556 nm and emission measured at 585 nm for 100 ms, every 22.6 seconds for 42 minutes.
All of the AtRLP23 constructs have an operably linked 2×35S+Ω promoter construct (SEQ ID NO: 72) and an operably linked rbcS terminator (SEQ ID NO: 73)
Fluorescence was monitored using a fluorimeter equipped with a 100 Hz xenon flash lamp with excitation at 556 nm and emission measured at 585 nm for 30 ms, every 20.2 seconds for 40 minutes. For each fluorescence measurement, the transient change in R-GECO1.2 fluorescence (ΔF) are calculated from background corrected intensity values as (F-Fo), where F represents the average fluorescence intensity of the a batch of protoplasts treated with elicitor, and Fo represents the average fluorescence intensity of the same batch of protoplasts treated with a control solution that lacks the elicitor but is otherwise identical or essentially identical in composition to the solution comprising the elicitor.

Molecule	Ca^2+ increase in response to PpNLP20 treatment (R-GECO1.2 fluorescence)	responsiveness to PpNLP20 treatment compared to AtRLP23-3×FLAG (total transient increase of fluorescence) (Example 3, FIG. 4, 40 minutes, 384-well)
B1	Ca^2+ increase	
B2	significant Ca^2+ increase	
B3	Ca^2+ increase	
B4	Ca^2+ increase	
B5		reduced responsiveness
